According to patent publication US20120114590A1 (priority 2005, published 2012):

Experiments:
[1] = system: 293 HEK cells overexpressing zcytor19; experiment: Inhibition of ligand-induced ISRE-luciferase signaling by soluble receptors; type: cell-based, human; details: 10 ng/ml ligand, 10 micrograms/ml soluble receptor, 4-hour; relative to PBS alone
Pichinde virus [2] = type: cell-based
[3] = system: Respiratory syncytial virus; type: cell-based
[4] = system: Respiratory syncytial virus; type: cell-based; details: MA-104 cells, Neutral Red Assay
Adenovirus [5] = type: cell-based
[6] = system: Influenza (type A [H3N2]); type: cell-based; details: Vero cells, Neutral Red Assay
EMCV = EMCV antiviral assay (MTT dye uptake) in HepG2 cells; type: cell-based, encephalomyocarditis virus; details: cytokine 24 hours before EMCV challenge
Rhino 9 = type: cell-based, rhino virus; details: Rhino 9, HeLa
Pichinde virus [7] = type: cell-based; remark: listed apart in the source
Polio virus = type: cell-based; details: Vero
Rhino 2 [8] = type: cell-based, rhino virus; details: Rhino 2, KB cells, Neutral Red Assay
BVDV = BVDV inhibition of cytopathic effect assay in MDBK cells; type: cell-based, bovine viral diarrhea virus; details: MDBK bovine kidney cells, day 7
Procedure: The MDBK cells were propagated in Dulbecco's modified essential medium (DMEM) containing phenol red with 10% horse serum, 1% glutamine and 1% penicillin-streptomycin. CPE inhibition assays were performed in DMEM without phenol red with 2% FBS, 1% glutamine and 1% Pen-Strep. On the day preceding the assays, cells were trypsinized (1% trypsin-EDTA), washed, counted and plated out at 10^4 cells/well in a 96-well flat-bottom BioCoat® plates (Fisher Scientific, Pittsburgh, Pa.) in a volume of 100 μl/well. The next day, the medium was removed and a pre-titered aliquot of virus was added to the cells. The amount of virus was the maximum dilution that would yield complete cell killing (>80%) at the time of maximal CPE development (day 7 for BVDV). Cell viability was determined using a CellTiter96® reagent (Promega) according to the manufacturer's protocol, using a Vmax plate reader (Molecular Devices, Sunnyvale, Calif.). Test samples were tested at six concentrations each, diluted in assay medium in a half-log series. IFNα and RIBAVIRIN® were used as positive controls. Test sample were added at the time of viral infection. The average background and sample color-corrected data for percent CPE reduction and percent cell viability at each concentration were determined relative to controls and the IC50 calculated relative to the TC50.

[9] = system: Venezuelan equine encephalitis virus; type: cell-based; details: Vero cells, Neutral Red Assay
Parainfluenza virus [10] = type: cell-based
Adenovirus [11] = type: cell-based; details: A549 cells, Neutral Red Assay
Vaccinia virus = type: cell-based; details: Vero
West Nile virus = type: cell-based; details: Vero
Coxsackie B4 virus = type: cell-based; details: KB
Parainfluenza virus [12] = type: cell-based; details: MA-104 cells, Neutral Red Assay
Dengue virus [13] = type: cell-based; details: Vero cells, Neutral Red Assay
Dengue virus [14] = type: cell-based; details: Vero
adenoviral vector AdGFP = experiment: Adenoviral vector (AdGFP) liver pathology model in C57Bl/6 mice; details: AdGFP-infected C57Bl/6 mice, 50 μg i.p., 7 doses
HHV-8 = HHV-8 replication in BCBL-1 cells (TaqMan PCR extracellular HHV-8 DNA; dye uptake TC50); type: cell-based, human herpesvirus-8
Procedure: The therapeutic index (TI) is calculated as TC50/IC50.

[15] = system: human marrow mononuclear cells
Rhino 2 [16] = type: cell-based, rhino virus; details: Rhino 2, KB
[17] = system: Influenza (type A [H3N2]); type: cell-based; details: Vero

B1: IL-29: human IL-29 cytokine polypeptide (zcyto21), e.g. SEQ ID NO:20 (protein, listed as Homo sapiens)
chain: MAAAWTVVLVTLVLGLAVAGPVPTSKPTTTGKGCHIGRFKSLSPQELASFKKARDALEESLKLKNWSCSSPVFPGNWDLRLLQVRERPVALEAELALTLKVLEAAAGPALEDVLDQPLHTLHHILSQLQACIQPQPTAGPRPRGRLHHWLHRLQEAPKKESAGCLEASVTFNLFRLLTRDLKYVADGNLCLRTSTHPEST
modifications: SIGNAL (1)...(19)
- Percent Inhibition of Ligand-induced ISRE Signaling by HuCRF2-4-Fc [1]: 79%
- Percent Inhibition of Ligand-induced ISRE Signaling by Huzcytor19-Fc [1]: 45%
- Percent Inhibition of Ligand-induced ISRE Signaling by Huzcytor19-Fc/huCRF2-4-Fc [1]: 16%
- Percent Inhibition of Ligand-induced ISRE Signaling by Muzcytor19-Ig [1]: 103%
- EC50 NR (Pichinde virus [2]): >10 µg/mL
- IC50 NR (Pichinde virus [2]): >10 µg/mL
- EC50 Visual ([3]; MA-104): >10 µg/mL
- IC50 Visual ([3]; MA-104, numerator of SI): >10 µg/mL
- EC50 NR [4]: >10 µg/mL
- IC50 NR [4]: >10 µg/mL
- EC50 Visual (Adenovirus [5]; A549): >10 µg/mL
- IC50 Visual (Adenovirus [5]; A549, numerator of SI): >10 µg/mL
- EC50 NR [6]: 2 µg/mL
- IC50 NR [6]: >10 µg/mL
- EC50 (antiviral activity, OD570) (EMCV): 0.0006 µg/mL
- EC50 Visual (Rhino 9): >10 µg/mL
- IC50 Visual (Rhino 9; numerator of SI): >10 µg/mL
- EC50 Visual (Pichinde virus [7]): >10 µg/mL
- IC50 Visual (Pichinde virus [7]): >10 µg/mL
- EC50 Visual (Polio virus): >10 µg/mL
- IC50 Visual (Polio virus; numerator of SI): >10 µg/mL
- EC50 NR (Rhino 2 [8]): >10 µg/mL
- IC50 NR (Rhino 2 [8]): >10 µg/mL
- IC50 (inhibition of cell death induced by BVDV) (BVDV): 0.19 µg/mL
- EC50 NR [9]: 0.05 µg/mL
- IC50 NR [9]: >10 µg/mL
- EC50 Visual (Parainfluenza virus [10]; MA-104): >10 µg/mL
- IC50 Visual (Parainfluenza virus [10]; MA-104, numerator of SI): >10 µg/mL
- EC50 NR (Adenovirus [11]): >10 µg/mL
- IC50 NR (Adenovirus [11]): >10 µg/mL
- EC50 Visual (Vaccinia virus): >10 µg/mL
- IC50 Visual (Vaccinia virus; numerator of SI): >10 µg/mL
- EC50 Visual (West Nile virus): 0.032 ng/mL
- IC50 Visual (West Nile virus; numerator of SI): >10 µg/mL
- EC50 Visual (Coxsackie B4 virus): >10 µg/mL
- IC50 Visual (Coxsackie B4 virus; numerator of SI): >10 µg/mL
- EC50 NR (Parainfluenza virus [12]): >10 µg/mL
- IC50 NR (Parainfluenza virus [12]): >10 µg/mL
- EC50 NR (Dengue virus [13]): 0.05 µg/mL
- IC50 NR (Dengue virus [13]): >10 µg/mL
- EC50 Visual (Dengue virus [14]): 0.032 µg/mL
- IC50 Visual (Dengue virus [14]; numerator of SI): >10 µg/mL
- liver histology: cellular changes versus PBS treatment group (adenoviral vector AdGFP): less proliferation of sinusoidal cells, fewer mitotic figures and fewer changes in the hepatocytes
- liver histology: liver and inflammation scores versus PBS-treated group (adenoviral vector AdGFP): lower liver and inflammation scores
- average serum AST (adenoviral vector AdGFP; n=8): 162 U/L
- serum ALT (adenoviral vector AdGFP; n=8): 184 U/L
- TI (TC50/IC50) (HHV-8): > 1.85
- IC50 (extracellular HHV-8 DNA) (HHV-8; six days): 6.5 µg/mL
- bone marrow cell expansion ([15]; in the presence of IL-2 or IL-15): small inhibition
- expansion of bone marrow cells ([15]; in the presence of IL-3, IL-4, IL-5, IL-7, IL-10, IL-12, IL-21 or no added cytokine): no significant effect
- EC50 Visual (Rhino 2 [16]): >10 µg/mL
- IC50 Visual (Rhino 2 [16]; numerator of SI): >10 µg/mL
- EC50 Visual [17]: >10 µg/mL
- IC50 Visual ([17]; numerator of SI): >10 µg/mL
